From article PMC4485890, “Structural Basis for the Specificity of Human NUDT16 and Its Regulation by Inosine Monophosphate” (PLoS ONE, 2015)

Tests used:
[1] = molecular target: the molecule itself; assay: crystal structure; apo form (1.80 Å) and IMP/Mg2+-bound form (1.72 Å), space group F23; one monomer in the asymmetric unit, dimer with a symmetry-related molecule
[2] = molecular target: the molecule itself; assay: SEC; analytical gel filtration of NUDT16 wild-type against standard proteins; protocol in S1 Text

| Protein | binding result [1] | stoichiometry N [2] |
| --- | --- | --- |
| human NUDT16 A22V (construct used for crystallography) (enzyme, UniProt Q96DE0 1-195, looked up, human NUDT16, full length, from MGC cDNA BC031215, which carries a mutation that replaces Ala22 by Val; A22V was already in the purchased cDNA and was not introduced by the authors; A TEV protease site follows the His6 tag; no cleavage is described for the crystallography sample; One monomer lies in the asymmetric unit and the dimer is formed by crystallographic symmetry; also called apo-NUDT16; …) MAGARRLELGEALALGSGWRHVCHALLYAPDPGMLFGRIPLRYAILMQMRFDGRLGFPGGFVDTQDRSLEDGLNRELREELGEAAAAFRVERTDYRSSHVGSGPRVVAHFYAKRLTLEELLAVEAGATRAKDHGLEVLGLVRVPLYTLRDGVGGLPTFLENSFIGSAREQLLEALQDLGLLQSGSISGLKIPAHH | binds | – |
| human NUDT16 wild-type (sample for analytical gel filtration) (enzyme, UniProt Q96DE0 1-195, looked up, human NUDT16 wild-type (Ala22); expression and purification for gel filtration are described only in S1 Text) MAGARRLELGEALALGSGWRHACHALLYAPDPGMLFGRIPLRYAILMQMRFDGRLGFPGGFVDTQDRSLEDGLNRELREELGEAAAAFRVERTDYRSSHVGSGPRVVAHFYAKRLTLEELLAVEAGATRAKDHGLEVLGLVRVPLYTLRDGVGGLPTFLENSFIGSAREQLLEALQDLGLLQSGSISGLKIPAHH | – | 2 |
